Data from US20230051701A1 (Bristol-Myers Squibb, published 2023).
Changes are numbered by the printed parent chain. Names may count otherwise. “And” between values parts separate entries of the source, which are not always exact repeats. Equal entries are not always repeated.

Experiments:
[1] = molecular target: T1, human CD73 on cells (Calu6, NCI-H292, SK-MEL-24, human tumor cell lines, human B and T cells) (human, UniProt P21589 27-549); experiment: cell-based or functional assay
T1 sequence: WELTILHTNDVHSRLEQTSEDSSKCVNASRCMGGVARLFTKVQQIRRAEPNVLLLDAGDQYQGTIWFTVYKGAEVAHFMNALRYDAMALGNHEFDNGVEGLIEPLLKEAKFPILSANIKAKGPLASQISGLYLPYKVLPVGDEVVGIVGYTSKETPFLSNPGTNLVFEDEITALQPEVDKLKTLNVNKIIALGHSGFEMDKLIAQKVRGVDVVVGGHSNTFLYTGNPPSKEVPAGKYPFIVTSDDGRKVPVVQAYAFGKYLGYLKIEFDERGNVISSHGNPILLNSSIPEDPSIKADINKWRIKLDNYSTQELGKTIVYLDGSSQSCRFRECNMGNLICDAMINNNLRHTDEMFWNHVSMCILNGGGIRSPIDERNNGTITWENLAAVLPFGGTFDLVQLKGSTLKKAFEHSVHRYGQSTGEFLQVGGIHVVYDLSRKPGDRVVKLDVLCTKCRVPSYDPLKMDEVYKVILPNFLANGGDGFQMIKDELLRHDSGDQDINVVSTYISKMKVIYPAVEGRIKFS

[2] = molecular target: T1, human CD73 on cells (Calu6, NCI-H292, …); experiment: flow cytometry, FITC-mAb, B cells of donor D329
Experimental: (§1) Binding of CD73.4 antibody to human B and T cells was also determined. Human blood from two donors, D316 and D329, was obtained from Immunsciences, BMS. Peripheral blood mononuclear cells (PBMC) were isolated with Lympholyte-H cell separation gradient media. […] Cells from both donors were pooled for the unstained and FMO (Fluorescence minus one) control samples.

[3] = molecular target: T1, human CD73 on cells (Calu6, NCI-H292, …); experiment: flow cytometry, FITC-mAb, T cells of donor D316
Experimental: as §1

[4] = molecular target: T2, N-terminal domain of hCD73 (residues 26-336 of human CD73), His-tagged (human, UniProt P21589 26-336); experiment: SPR, comparison of all IgG2 molecules
T2 construct: also called N-hCD73; N-hCD73-his
T2 sequence: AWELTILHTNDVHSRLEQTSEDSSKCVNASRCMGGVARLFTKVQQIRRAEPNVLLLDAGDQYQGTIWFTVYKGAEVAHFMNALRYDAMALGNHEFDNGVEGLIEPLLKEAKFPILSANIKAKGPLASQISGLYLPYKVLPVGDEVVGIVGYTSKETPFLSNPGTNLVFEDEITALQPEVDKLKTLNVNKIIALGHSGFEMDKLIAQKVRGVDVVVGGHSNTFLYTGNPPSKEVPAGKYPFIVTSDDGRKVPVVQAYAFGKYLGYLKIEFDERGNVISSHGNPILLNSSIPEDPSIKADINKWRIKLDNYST
Experimental: For these experiments, protein A (Pierce) was immobilized to a density of 3000 — 4000 RU on flow cells 1-4 of a CM5 sensor chip (GE Healthcare) using standard ethyl(dimethylaminopropyl) carbodiimide (EDC)/N-hydroxysuccinimide (NHS) chemistry, with ethanolamine blocking, in a running buffer of 0.01 M HEPES pH 7.4, 0.15 M NaCl, 3 mM EDTA, 0.005% v/v tween 20. […] The running buffer for the kinetic experiments was 10 mM sodium phosphate, 130 mM sodium chloride, 0.05% tween 20, pH 7.1. The surfaces were regenerated after each cycle using two 30 s pulses of 10 mM glycine pH 1.5 at a flow rate of 30 μl/min. Sensogram data was double-referenced and then fitted to a 1:1 Langmuir model using Biacore T100 evaluation software v2.0.4, to determine the association rate constant (ka), the dissociation rate constant (kd), and the equilibrium dissociation constant (KD).

[5] = molecular target: T1, human CD73 on cells (Calu6, NCI-H292, …); experiment: cell-based or functional assay; remark: listed apart in the source
mouse CD73 = molecular target: T3, mouse CD73 (mouse, UniProt Q61503 29-551, limits assumed); experiment: SPR study of Example 3A; format not described
T3 sequence (looked up): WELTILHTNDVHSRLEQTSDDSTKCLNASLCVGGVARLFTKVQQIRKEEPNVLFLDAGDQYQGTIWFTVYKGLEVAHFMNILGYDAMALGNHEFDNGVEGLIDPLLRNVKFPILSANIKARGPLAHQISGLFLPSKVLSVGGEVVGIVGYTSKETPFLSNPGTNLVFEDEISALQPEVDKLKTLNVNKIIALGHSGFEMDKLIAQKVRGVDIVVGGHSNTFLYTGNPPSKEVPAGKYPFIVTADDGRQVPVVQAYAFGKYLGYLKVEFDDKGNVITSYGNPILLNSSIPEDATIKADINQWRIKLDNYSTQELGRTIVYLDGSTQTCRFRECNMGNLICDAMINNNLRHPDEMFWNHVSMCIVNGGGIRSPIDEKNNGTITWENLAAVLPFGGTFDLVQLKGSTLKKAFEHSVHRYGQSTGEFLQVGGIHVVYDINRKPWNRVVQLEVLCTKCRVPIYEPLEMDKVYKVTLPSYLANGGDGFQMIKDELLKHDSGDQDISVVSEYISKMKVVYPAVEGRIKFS

rat CD73 = molecular target: T4, rat CD73 (rat, UniProt P21588 29-551, limits assumed); experiment: SPR study of Example 3A; format not described
T4 sequence (looked up): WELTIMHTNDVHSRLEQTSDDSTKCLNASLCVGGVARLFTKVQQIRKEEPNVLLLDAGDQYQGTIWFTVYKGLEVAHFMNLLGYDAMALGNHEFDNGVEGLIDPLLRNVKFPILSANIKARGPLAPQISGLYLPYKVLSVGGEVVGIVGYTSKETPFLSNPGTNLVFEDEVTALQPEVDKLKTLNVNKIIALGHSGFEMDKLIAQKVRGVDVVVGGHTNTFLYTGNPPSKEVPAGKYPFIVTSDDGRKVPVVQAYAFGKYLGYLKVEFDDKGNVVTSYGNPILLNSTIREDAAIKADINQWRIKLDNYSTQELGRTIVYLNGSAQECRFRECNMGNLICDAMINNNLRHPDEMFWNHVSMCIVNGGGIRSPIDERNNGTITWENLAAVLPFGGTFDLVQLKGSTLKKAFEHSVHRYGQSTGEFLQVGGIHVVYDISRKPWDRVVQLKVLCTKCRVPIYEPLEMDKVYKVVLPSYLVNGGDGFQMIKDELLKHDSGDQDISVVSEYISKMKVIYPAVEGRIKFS

B1: CD73.4-IgG2-C219S (antibody)
heavy: QVQLVESGGGVVQPGRSLRLSCAASGFTFSNYGMHWVRQAPGKGLEWVAVILYDGSNKYYPDSVKGRFTISRDNSKNTLYLQMNSLRAEDTAVYYCARGGSSWYPDSFDIWGQGTMVTVSSASTKGPSVFPLAPCSRSTSESTAALGCLVKDYFPEPVTVSWNSGALTSGVHTFPAVLQSSGLYSLSSVVTVPSSNFGTQTYTCNVDHKPSNTKVDKTVERKSCVECPPCPAPPVAGPSVFLFPPKPKDTLMISRTPEVTCVVVDVSHEDPEVQFNWYVDGVEVHNAKTKPREEQFNSTFRVVSVLTVVHQDWLNGKEYKCKVSNKGLPAPIEKTISKTKGQPREPQVYTLPPSREEMTKNQVSLTCLVKGFYPSDIAVEWESNGQPENNYKTTPPMLDSDGSFFLYSKLTVDKSRWQQGNVFSCSVMHEALHNHYTQKSLSLSPG
light: not shown
notes: also called CD73.4-IgG2CS; CD73.4-IgG2.3
With B1 the “CD73 Inhibition EC50(nM), cAMP assay, Calu6” value [1] was 1.56 nM and 1.78 nM, the IC50 [2] was 0.0777 nM and the IC50 [3] was 0.18 nM.

B2: CD73.10-IgG2-C219S (antibody)
heavy: B1 heavy with L52W, G55E
light: not shown
notes: also called CD73.10-IgG2CS; CD73.10-IgG2S
B2 was tested, and the “fold lower affinity than 11F11 or CD73.4” value [4] was ~10 fold.

B3: CD73.4-IgG2-C219S-IgG1.1f (antibody)
heavy: B1 heavy with Q274K, F296Y, F300Y, V309L, G327A, A330S, P331S, T339A, M397V
light: not shown
modifications: 94% of the N-terminal glutamine was pyro-Q; 97% of the heavy chains lacked the C-terminal lysine
notes: also called CD73.4-IgG2CS-IgG1.1f
B3 was tested, and the “EC50, blockade of endogenous cellular CD73 in Calu6” value [5] was 0.31 to 0.48 nM, the “EC50 for blockade of endogenous cellular CD73 in Calu6” value [5] was 0.31 to 0.48 nM and the “CD73 Inhibition EC50(nM), cAMP assay, Calu6” value [1] was 1.28 nM. The “CD73 Inhibition S:B, cAMP assay, Calu6” value [1] was 12, the binding result (mouse CD73) was “no binding” and the binding result (rat CD73) was “no binding”. For the same binder, the IC50 [2] was 0.145 nM and the IC50 [3] was 0.183 nM.
